Assays:
[1] = target: recombinant SCM (Streptococcus canis M protein), mature wild type (Streptococcus canis (strain G361)); test: SPR
[2] = target: SCM on the surface of S. canis strain G361 (Streptococcus canis (endogenous in strain G361)); test: radioligand binding; inhibition: S. canis G361 with iodinated full-length SCM after pre-incubation with non-iodinated SCM, N-225 or C-226 (5 µg in the text, 1 µM in the legend)
[3] = target: SCM on the surface of S. canis strain G361 (Streptococcus canis (endogenous in strain G361)); test: radioligand binding; iodinated protein (chloramine T) incubated with whole bacteria; percentage binding of totally used iodinated protein

For “recombinant SCM (Streptococcus canis M protein), mature wild type”, the Kd ([1]; natural protein) was 4120 nM.

Work on “recombinant SCM (Streptococcus canis M protein), mature wild type (natural protein)” yielded a percent of iodinated SCM bound to G361 with the unlabelled competitor [2] of 4.4% and a percent of the iodinated protein bound [3] of 24.1%.

Work on SCM fragment N-225 yielded a Kd ([1]; domain or fragment) of 58.5 nM.

SCM fragment N-225 (domain or fragment) showed a percent of iodinated SCM bound to G361 with the unlabelled competitor [2] of 6.8%.
